Assay results: paper PMC3656841

Molecular target: T1, Bacillus subtilis DNA Ligase D (BsuLigD) (B. subtilis) (UniProt O34398)
T1 sequence: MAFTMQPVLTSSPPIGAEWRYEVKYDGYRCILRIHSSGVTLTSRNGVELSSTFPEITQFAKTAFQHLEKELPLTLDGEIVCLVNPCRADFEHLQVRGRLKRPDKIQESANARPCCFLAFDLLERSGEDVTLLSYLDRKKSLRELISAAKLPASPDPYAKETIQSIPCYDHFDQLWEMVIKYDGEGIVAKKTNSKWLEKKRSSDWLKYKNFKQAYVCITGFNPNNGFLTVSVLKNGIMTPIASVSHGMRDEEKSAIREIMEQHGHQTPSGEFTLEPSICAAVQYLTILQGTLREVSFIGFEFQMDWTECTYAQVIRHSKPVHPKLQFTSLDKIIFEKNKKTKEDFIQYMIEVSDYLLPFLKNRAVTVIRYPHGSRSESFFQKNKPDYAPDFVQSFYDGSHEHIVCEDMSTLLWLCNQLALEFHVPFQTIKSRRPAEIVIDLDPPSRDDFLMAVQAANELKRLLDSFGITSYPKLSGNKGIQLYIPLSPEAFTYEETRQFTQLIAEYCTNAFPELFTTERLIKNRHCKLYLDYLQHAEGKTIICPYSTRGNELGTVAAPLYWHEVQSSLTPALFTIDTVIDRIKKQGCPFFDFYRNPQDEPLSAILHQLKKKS

primer usage by BsuLigD (percentage of extended primers against reaction time) on a gapped molecule, 10 ng BsuLigD, 10 µM NTPs, without or with 40 ng of BsuKu: 3 fold
B1: Bacillus subtilis Ku (BsuKu) (natural protein)
chain: MNRTPSLHTKEKKGFIDMHTMWKGSISFGLVNIPIKLYAATEDKDIKLRSLHKEDHAPIKYEKVCTNCEKTLSPDEIVKGYEYVKGKYVVLTDEDLKSLKQEHEEKAVEIVDFVQLQEIDPIYFNRSYFVGPGDNGTKAYTLLREALRSTGKIGIANMTIRSKQQLAILRVYENCIVMESIHYPDEVRSAAQVPGVPDQSNVNDKELQTAITLIDELTAKFEPEKYEDTYRQALLQRVNDKLENKETAVTPDKAPPREDVIDLVSALQASIDRTRRPNRETPAAAPAQAAEPKGAGDKKQKTTRKKASGTS
